Columns and labels:
[1] = target: SARS-CoV-2 spike protein S on live virus, Alpha variant (SARS-CoV-2 (Alpha variant)) (UniProt P0DTC2); test: cell-based or functional assay
[2] = target: Human SARS-CoV-2 Gamma (P.1) S (SARS-CoV-2 (Gamma variant)) (UniProt P0DTC2); test: flow cytometry SVNA: VHH-Fc inhibits S binding to ACE2 on Vero E6 cells
[3] = target: Human SARS-CoV-2 Kappa (B.1.617.1) S (SARS-CoV-2 (Kappa variant)) (UniProt P0DTC2); test: as above
[4] = target: Human SARS-CoV-2 Delta (B.1.617.2) S (SARS-CoV-2 (Delta variant)) (UniProt P0DTC2); test: as above

VHH-72 VHH-Fc (Fc fusion) showed an LVNA IC50 [1] of 1.86 nM, an IC50 [2] of 3.3 nM and an IC50 [3] of 8.5 nM. For the same substance, the IC50 [4] was 10.5 nM.

Source: patent publication US20240270826A1
